In patent US20200283478A1 (Genentech, published 2020):
Square brackets hold non-standard residues; d marks the D form. Ends that are not written are not given here. * marks the point of attachment. hArg = N=C(N)NCCCC[C@H](N)C(=O)O; Pentanoyl = CCCCC(=O)*

B1: Compound 234 (peptide)
peptide: Pentanoyl-WNLV[hArg]IGLTR-NH2
SMILES: CCCCC(=O)N[C@@H](Cc1c[nH]c2ccccc12)C(=O)N[C@@H](CC(N)=O)C(=O)N[C@@H](CC(C)C)C(=O)N[C@H](C(=O)N[C@@H](CCCCNC(=N)N)C(=O)N[C@H](C(=O)NCC(=O)N[C@@H](CC(C)C)C(=O)N[C@H](C(=O)N[C@@H](CCCNC(=N)N)C(N)=O)[C@@H](C)O)[C@@H](C)CC)C(C)C
notes: also called n-BuC(O)-WNLV(homoR)IGLTR-NH2
B2: Compound 237 (peptide)
peptide: WNLV[hArg]IGLLQ-NH2
modifications: N-terminus assumed
SMILES: CC[C@H](C)[C@H](NC(=O)[C@H](CCCCNC(=N)N)NC(=O)[C@@H](NC(=O)[C@H](CC(C)C)NC(=O)[C@H](CC(N)=O)NC(=O)[C@@H](N)Cc1c[nH]c2ccccc12)C(C)C)C(=O)NCC(=O)N[C@@H](CC(C)C)C(=O)N[C@@H](CC(C)C)C(=O)N[C@@H](CCC(N)=O)C(N)=O
notes: also called WNLV(homoR)IGLLQ-NH2
B3: Compound 231 (peptide)
peptide: Ac-ESYPGWNLV[hArg]IGLLR-NH2
SMILES: CC[C@H](C)[C@H](NC(=O)[C@H](CCCCNC(=N)N)NC(=O)[C@@H](NC(=O)[C@H](CC(C)C)NC(=O)[C@H](CC(N)=O)NC(=O)[C@H](Cc1c[nH]c2ccccc12)NC(=O)CNC(=O)[C@@H]1CCCN1C(=O)[C@H](Cc1ccc(O)cc1)NC(=O)[C@H](CO)NC(=O)[C@H](CCC(=O)O)NC(C)=O)C(C)C)C(=O)NCC(=O)N[C@@H](CC(C)C)C(=O)N[C@@H](CC(C)C)C(=O)N[C@@H](CCCNC(=N)N)C(N)=O

target: T1, His-tagged, full-length PCSK9 (human, UniProt Q8NBP7 31-692); experiment: TR-FRET competition; His-PCSK9, competitor EGF(A)-Fc
T1 construct: The secreted protein is autocleaved into a prodomain and a catalytic/Cys-rich chain that starts at S153; also called His-PCSK9
T1 sequence (Q8NBP7 other isoform, or with tags, fused parts or gaps limits assumed): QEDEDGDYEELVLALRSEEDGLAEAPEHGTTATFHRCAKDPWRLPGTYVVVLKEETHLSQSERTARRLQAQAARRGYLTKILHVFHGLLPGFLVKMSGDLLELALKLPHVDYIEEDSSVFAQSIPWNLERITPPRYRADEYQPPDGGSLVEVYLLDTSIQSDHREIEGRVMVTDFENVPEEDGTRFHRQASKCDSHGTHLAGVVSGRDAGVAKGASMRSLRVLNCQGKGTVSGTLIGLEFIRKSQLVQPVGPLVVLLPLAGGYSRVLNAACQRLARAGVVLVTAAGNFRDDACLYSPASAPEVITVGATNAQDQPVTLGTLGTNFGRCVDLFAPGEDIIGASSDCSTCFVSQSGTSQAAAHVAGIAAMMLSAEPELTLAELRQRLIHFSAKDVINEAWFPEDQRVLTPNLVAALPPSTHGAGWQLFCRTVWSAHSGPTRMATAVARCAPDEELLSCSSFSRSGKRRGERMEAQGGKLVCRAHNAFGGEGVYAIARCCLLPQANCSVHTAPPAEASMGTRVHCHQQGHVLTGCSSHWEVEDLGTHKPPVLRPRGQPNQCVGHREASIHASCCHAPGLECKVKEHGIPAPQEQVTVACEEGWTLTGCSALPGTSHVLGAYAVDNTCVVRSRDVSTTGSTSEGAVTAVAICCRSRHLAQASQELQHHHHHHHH
Experimental: (§1) Signal generation in the PCSK9 binding assays was dependent upon the binding interaction to bring into close proximity the His-tag on the PCSK9 and the Fc-tag on the ligand. Anti-His-APC was bound to the His-tag, and anti-Fc-europium was bound to the Fc-tag.
(§2) Compounds were solubilized and dilutions were prepared in DMSO. […] The plate was centrifuged to mix the well contents and allowed to incubate for 30 min. […] The normalized TR-FRET ratios were plotted as a function of the compound concentrations, and the IC₅₀ values were determined using a 4-parameter logistic regression.

| IC50 [nM] | Binder |
| --- | --- |
| 450 | WNLV[hArg]IGLLR (also: further groups not given here, Structure printed only as a drawing) [Compound 208] |
| ≥ 50000 | Ac-WNLV[hArg]IGLLR-NH2 (also called Ac-WNLV(homoR)IGLLR-NH2) [Compound 192] |
| 27000 | WNLV[hArg]IGLLR (also: further groups not given here, Structure printed only as a drawing) [Compound 225] |
| 3000 | WNLV[hArg]IGLLR (also: further groups not given here, Structure printed only as a drawing) [Compound 214] |
| 6200 | WNLV[hArg]IGLLR (also: further groups not given here, Structure printed only as a drawing) [Compound 226] |
| 3200 | WNLV[hArg]IGLLR (also: end groups and other groups only in drawing, Structure printed only as a drawing) [Compound 200] |
| 15000 | WNLV[hArg]IGLLR (also: further groups not given here, Structure printed only as a drawing) [Compound 212] |
| 1700 | WNLV[hArg]IGLLR (also: end groups and other groups only in drawing, Structure printed only as a drawing) [Compound 198] |
| 9900 | WNLV[hArg]IGLLR (also: further groups not given here, Structure printed only as a drawing) [Compound 219] |
| 37000 | WNLV[hArg]IGLLR (also: further groups not given here, Structure printed only as a drawing) [Compound 220] |
| 3600 | WNLV[hArg]IGLLR (also: further groups not given here, Structure printed only as a drawing) [Compound 204] |
| 14000 | WNLV[hArg]IGLLR (also: further groups not given here, Structure printed only as a drawing) [Compound 211] |
| 2900 | WNLV[hArg]IGLLR (also: further groups not given here, Structure printed only as a drawing) [Compound 209] |
| 2600 | WNLV[hArg]IGLLR (also: end groups and other groups only in drawing, Structure printed only as a drawing) [Compound 202] |
| 7300 | WNLV[hArg]IGLLR (also: end groups and other groups only in drawing, Structure printed only as a drawing) [Compound 196] |
| 4100 | WNLV[hArg]IGLLR (also: further groups not given here, Structure printed only as a drawing) [Compound 217] |
| 7000 | WNLV[hArg]IGLLR (also: further groups not given here, Structure printed only as a drawing) [Compound 215] |
| 21000 | WNLV[hArg]IGLLR (also: further groups not given here, Structure printed only as a drawing) [Compound 222] |
| 9500 | WNLV[hArg]IGLLR (also: further groups not given here, Structure printed only as a drawing) [Compound 221] |
| 980 | WNLV[hArg]IGLLR (also: end groups and other groups only in drawing, Structure printed only as a drawing) [Compound 199] |

| IC50 [nM] | Binder |
| --- | --- |
| ≥ 50000 | B1 |
| 8800 | B2 |
| 7700 | WNLV[hArg]IGLLN (also: further groups not given here, Structure printed only as a drawing) [Compound 238] |
| ≥ 50000 | Pentanoyl-WNLV[hArg]IGLTR (also called n-BuC(O)-WNLV(homoR)IGLTR) [Compound 235] |
| 21000 | WNLV[hArg]IGLLR (also: end groups and other groups only in drawing, Structure printed only as a drawing) [Compound 203] |
| 7000 | WNLV[hArg]IGLLR (also: further groups not given here, Structure printed only as a drawing) [Compound 224] |
| 1300 | WNLV[hArg]IGLLR (also: further groups not given here, Structure printed only as a drawing) [Compound 207] |
| 3900 | WNLV[hArg]IGLLR (also: end groups and other groups only in drawing, Structure printed only as a drawing) [Compound 201] |
| ≥ 50000 | WNLV[hArg]IGLLR (also: end groups and other groups only in drawing, Structure printed only as a drawing) [Compound 193] |
| 6000 | WNLV[hArg]IGLLR (also: further groups not given here, Structure printed only as a drawing) [Compound 216] |
| 21000 | WNLV[hArg]IGLLR (also: further groups not given here, Structure printed only as a drawing) [Compound 223] |
| 3000 | WNLV[hArg]IGLLR (also: further groups not given here, Structure printed only as a drawing) [Compound 210] |
| 970 | WNLV[hArg]IGLLR (also: end groups and other groups only in drawing, Structure printed only as a drawing) [Compound 197] |
| ≥ 50000 | WNLV[hArg]IGLLR (also: end groups and other groups only in drawing, Structure printed only as a drawing) [Compound 194] |
| 1600 | B3 |
| 5000 | WNLV[hArg]IGLLR (also: further groups not given here, Structure printed only as a drawing) [Compound 218] |
| 3800 | WNLV[hArg]IGLLR (also: further groups not given here, Structure printed only as a drawing) [Compound 213] |
| 1800 | WNLV[hArg]IGLLR (also: further groups not given here, Structure printed only as a drawing) [Compound 206] |
| 2800 | WNLV[hArg]IGLLR (also: end groups and other groups only in drawing, Structure printed only as a drawing) [Compound 205] |

target: T2, His-tagged PCSK9Δhelix (human, UniProt Q8NBP7 31-152; Q8NBP7 168-692); experiment: TR-FRET competition; His-PCSK9Δhelix, competitor Ab20
T2 construct: Construct M1-Q692 with engineered TEV site, cut by TEV protease; new N-terminus of the catalytic domain is S-A168; also called His-PCSK9Δhelix
T2 sequence (Q8NBP7 31-152, stated change not applied, chain 1 of 2): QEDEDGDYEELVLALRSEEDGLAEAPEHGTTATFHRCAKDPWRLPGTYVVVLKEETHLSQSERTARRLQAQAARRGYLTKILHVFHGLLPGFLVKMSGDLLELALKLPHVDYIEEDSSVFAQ
T2 sequence (Q8NBP7 other isoform, or with tags, fused parts or gaps mutant, chain 2 of 2): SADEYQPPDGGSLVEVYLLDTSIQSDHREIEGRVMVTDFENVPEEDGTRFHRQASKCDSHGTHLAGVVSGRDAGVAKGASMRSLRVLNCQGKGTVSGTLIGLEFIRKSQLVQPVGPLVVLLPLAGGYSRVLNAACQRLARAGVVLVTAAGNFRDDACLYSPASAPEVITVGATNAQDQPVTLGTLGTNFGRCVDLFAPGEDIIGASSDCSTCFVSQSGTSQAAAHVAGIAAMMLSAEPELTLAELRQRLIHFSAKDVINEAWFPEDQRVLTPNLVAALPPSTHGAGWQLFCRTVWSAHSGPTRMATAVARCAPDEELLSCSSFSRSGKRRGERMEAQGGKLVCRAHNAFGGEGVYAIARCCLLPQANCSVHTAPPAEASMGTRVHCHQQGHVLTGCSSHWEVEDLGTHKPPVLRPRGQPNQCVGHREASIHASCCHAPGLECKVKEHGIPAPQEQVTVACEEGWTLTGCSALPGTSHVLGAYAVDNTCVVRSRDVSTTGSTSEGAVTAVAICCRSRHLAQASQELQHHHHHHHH
Experimental: as §1, §2

| IC50 [nM] | Binder |
| --- | --- |
| 100 | WNLV[hArg]IGLLR (also: further groups not given here, Structure printed only as a drawing) [Compound 208] |
| 5300 | Ac-WNLV[hArg]IGLLR-NH2 (also called Ac-WNLV(homoR)IGLLR-NH2) [Compound 192] |
| 1800 | WNLV[hArg]IGLLR (also: further groups not given here, Structure printed only as a drawing) [Compound 225] |
| 210 | WNLV[hArg]IGLLR (also: further groups not given here, Structure printed only as a drawing) [Compound 214] |
| 350 | WNLV[hArg]IGLLR (also: further groups not given here, Structure printed only as a drawing) [Compound 226] |
| 670 | WNLV[hArg]IGLLR (also: end groups and other groups only in drawing, Structure printed only as a drawing) [Compound 200] |
| 1600 | WNLV[hArg]IGLLR (also: further groups not given here, Structure printed only as a drawing) [Compound 212] |
| 250 | WNLV[hArg]IGLLR (also: end groups and other groups only in drawing, Structure printed only as a drawing) [Compound 198] |
| 680 | WNLV[hArg]IGLLR (also: further groups not given here, Structure printed only as a drawing) [Compound 219] |
| 910 | WNLV[hArg]IGLLR (also: further groups not given here, Structure printed only as a drawing) [Compound 220] |
| 870 | WNLV[hArg]IGLLR (also: further groups not given here, Structure printed only as a drawing) [Compound 204] |
| 3800 | WNLV[hArg]IGLLR (also: further groups not given here, Structure printed only as a drawing) [Compound 211] |
| 450 | WNLV[hArg]IGLLR (also: further groups not given here, Structure printed only as a drawing) [Compound 209] |
| 340 | WNLV[hArg]IGLLR (also: end groups and other groups only in drawing, Structure printed only as a drawing) [Compound 202] |
| 1400 | WNLV[hArg]IGLLR (also: end groups and other groups only in drawing, Structure printed only as a drawing) [Compound 196] |
| 390 | WNLV[hArg]IGLLR (also: further groups not given here, Structure printed only as a drawing) [Compound 217] |
| 480 | WNLV[hArg]IGLLR (also: further groups not given here, Structure printed only as a drawing) [Compound 215] |
| 1400 | WNLV[hArg]IGLLR (also: further groups not given here, Structure printed only as a drawing) [Compound 222] |
| 650 | WNLV[hArg]IGLLR (also: further groups not given here, Structure printed only as a drawing) [Compound 221] |
| 200 | WNLV[hArg]IGLLR (also: end groups and other groups only in drawing, Structure printed only as a drawing) [Compound 199] |

| IC50 [nM] | Binder |
| --- | --- |
| 1400 | B1 |
| 330 | B2 |
| 330 | WNLV[hArg]IGLLN (also: further groups not given here, Structure printed only as a drawing) [Compound 238] |
| 2700 | Pentanoyl-WNLV[hArg]IGLTR (also called n-BuC(O)-WNLV(homoR)IGLTR) [Compound 235] |
| 1600 | WNLV[hArg]IGLLR (also: end groups and other groups only in drawing, Structure printed only as a drawing) [Compound 203] |
| 530 | WNLV[hArg]IGLLR (also: further groups not given here, Structure printed only as a drawing) [Compound 224] |
| 320 | WNLV[hArg]IGLLR (also: further groups not given here, Structure printed only as a drawing) [Compound 207] |
| 1000 | WNLV[hArg]IGLLR (also: end groups and other groups only in drawing, Structure printed only as a drawing) [Compound 201] |
| 1500 | WNLV[hArg]IGLLR (also: end groups and other groups only in drawing, Structure printed only as a drawing) [Compound 193] |
| 300 | WNLV[hArg]IGLLR (also: further groups not given here, Structure printed only as a drawing) [Compound 216] |
| 1400 | WNLV[hArg]IGLLR (also: further groups not given here, Structure printed only as a drawing) [Compound 223] |
| 840 | WNLV[hArg]IGLLR (also: further groups not given here, Structure printed only as a drawing) [Compound 210] |
| 90 | WNLV[hArg]IGLLR (also: end groups and other groups only in drawing, Structure printed only as a drawing) [Compound 197] |
| 1900 | WNLV[hArg]IGLLR (also: end groups and other groups only in drawing, Structure printed only as a drawing) [Compound 194] |
| 17000 | B3 |
| 260 | WNLV[hArg]IGLLR (also: further groups not given here, Structure printed only as a drawing) [Compound 218] |
| 200 | WNLV[hArg]IGLLR (also: further groups not given here, Structure printed only as a drawing) [Compound 213] |
| 870 | WNLV[hArg]IGLLR (also: further groups not given here, Structure printed only as a drawing) [Compound 206] |
| 640 | WNLV[hArg]IGLLR (also: end groups and other groups only in drawing, Structure printed only as a drawing) [Compound 205] |
